We go through one molecule from publication PMC3059340 (Analytical chemistry, 2011).

The assay has as its target T1, Recombinant human E-selectin/Fc chimera (human, UniProt P16581 22-556).
T1 sequence (looked up): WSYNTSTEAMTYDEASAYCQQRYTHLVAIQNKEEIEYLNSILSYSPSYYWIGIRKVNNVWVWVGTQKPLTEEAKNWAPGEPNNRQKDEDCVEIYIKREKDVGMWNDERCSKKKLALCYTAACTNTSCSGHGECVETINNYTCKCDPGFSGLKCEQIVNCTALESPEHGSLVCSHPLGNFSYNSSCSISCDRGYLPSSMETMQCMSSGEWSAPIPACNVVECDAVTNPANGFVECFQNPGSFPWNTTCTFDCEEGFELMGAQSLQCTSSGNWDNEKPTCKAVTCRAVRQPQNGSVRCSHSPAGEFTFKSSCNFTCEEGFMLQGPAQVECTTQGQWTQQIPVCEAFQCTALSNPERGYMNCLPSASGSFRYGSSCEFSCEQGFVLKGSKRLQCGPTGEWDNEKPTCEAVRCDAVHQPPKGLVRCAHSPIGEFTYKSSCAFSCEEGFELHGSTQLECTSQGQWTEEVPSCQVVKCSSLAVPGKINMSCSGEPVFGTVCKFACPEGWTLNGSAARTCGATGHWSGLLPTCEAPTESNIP
Put plainly: SPR. A general note: In SPR one partner is held on a chip, and binding of the other changes the refractive index at the surface.

B1: Recombinant human CD24 (natural protein, UniProt P25063 27-59, looked up)
chain: SETTTGTSSNSSQSTSNSGLAPNPTNATTKAAG
As a reminder, the Kd is the constant that tells how readily two partners part at equilibrium. A word on the koff: it is a measure of how fast the partners let go of each other. Broadly, the kon is the second-order rate constant of association. For B1, the Ka stood at 3.18e+08 M⁻¹, the Kd came out at 3.4 nM, the koff is 0.0016 s⁻¹ and the association rate constant (kon) was found to be 379000 M⁻¹ s⁻¹.
